Laboratory results: patent US20140287029A1 (US Dept. of Health and Human Services, published 2014)

Biological target: T1, HLA-A2 molecules on T2 cells (human)
T1 construct: whole, on cells; MHC class I molecule on the surface of T2 cells
Assay: T2 cell-binding assay, flow cytometry of HLA-A2 on T2 cells, peptide 25 µg/mL
From the text: The T2 binding values are expressed in mean fluorescence intensity. The values in parentheses are fold increases as compared with the negative control (CAP-7 peptide).

B1: NGEP peptide P846 (L) (peptide)
peptide: LLAIRLWAV
notes: Synthetic peptide, purity >95%; positions counted on the NGEP long form (L)
- T2 Binding (mean fluorescence intensity): 126 MFI
- fold increase compared with the negative control (CAP-7 peptide): 1.4 fold

B2: NGEP peptide P855 (L) (peptide)
peptide: IVFEHVVFSV
notes: as for B1
- T2 Binding (mean fluorescence intensity): 203 MFI
- fold increase compared with the negative control (CAP-7 peptide): 2.3 fold

B3: NGEP peptide P113 (S) (peptide)
peptide: LVWEEDLKL
notes: Synthetic peptide, purity >95%; positions counted on the NGEP short form (S)
- T2 Binding (mean fluorescence intensity): 367 MFI
- fold increase compared with the negative control (CAP-7 peptide): 4.1 fold

B4: NGEP peptide P10 (S) (peptide)
peptide: GLGGPPLPTL
notes: as for B3
- T2 Binding (mean fluorescence intensity): 212 MFI
- fold increase compared with the negative control (CAP-7 peptide): 2.4 fold

B5: NGEP peptide P143 (peptide)
peptide: FLDNIRAAGL
notes: Synthetic peptide, purity >95%; also called P143 (5)
- T2 Binding (mean fluorescence intensity): 203 MFI
- fold increase compared with the negative control (CAP-7 peptide): 2.3 fold

B6: NGEP peptide P703 (L) (peptide)
peptide: GLFDEYLEMV
notes: Synthetic peptide, purity >95%; positions counted on the NGEP long form (L); also called NGEP-P703
- T2 Binding (mean fluorescence intensity): 565 MFI
- fold increase compared with the negative control (CAP-7 peptide): 6.4 fold

B7: NGEP peptide P258 (L) (peptide)
peptide: ILFEILAKT
notes: as for B1
- T2 Binding (mean fluorescence intensity): 280 MFI
- fold increase compared with the negative control (CAP-7 peptide): 3.1 fold

B8: NGEP peptide P356 (L) (peptide)
peptide: WLLPAAVVGT
notes: as for B1
- T2 Binding (mean fluorescence intensity): 354 MFI
- fold increase compared with the negative control (CAP-7 peptide): 4 fold

B9: NGEP peptide P215 (L) (peptide)
peptide: VLLEVVPDV
notes: as for B1
- T2 Binding (mean fluorescence intensity): 464 MFI
- fold increase compared with the negative control (CAP-7 peptide): 5.2 fold

B10: MUC-1 (P1240) peptide (peptide)
peptide: SLSYTNPAV
notes: Synthetic control peptide, purity >95%; also called positive control peptide
- T2 Binding (mean fluorescence intensity): 452 MFI
- fold increase compared with the negative control (CAP-7 peptide): 5.1 fold

B11: NGEP peptide P170 (L) (peptide)
peptide: ALLSASWAV
notes: as for B1
- T2 Binding (mean fluorescence intensity): 185 MFI
- fold increase compared with the negative control (CAP-7 peptide): 2.1 fold
